B1: OR4K15 (parent)
chain: GUUAACGGUCAUAGGCCAUGGAAACUAGGAGCACCAUUUCGCUGCCAGUGAAGAAAUGAACAAAGAAAAUCUGGGCCAGGCAGGCAUCAAAAGAAAUAGUCUUGCGCUCAACCAGAAAGUCUGUAAUCAUUUUAAGGGUA

Variants of: B1
Experiment: self-cleavage, relative activity (ratio to wild type); higher = more cleavage; in vitro, sequencing; the parent is a self-cleaving ribozyme

Variant | self-cleavage
A51G G74U | 0.37
U72A A110C | 0.06
A59G U139C | 1.4
A116G G138A | 0.8
A96G U122C | 1.38
A5G | 0.92
U39C A116U | 0.23
G41A A125C | 0.19
A5U U37C | 0.72
U103C A129G | 0.56
A13G A118U | 0.59
A36G G65U | 1.06
U9A G15C | 0.57
A23U U108C | 0.01
U19A A82U | 0.34
U12C A69G | 1.68
U12C A23G | 0.76
U38C G80U | 0.06
A95G U122A | 1.78
A82G A92G | 0.67
A30G A110G | 0.15
A64U A82G | 0.71
U103C U132A | 1.03
A110U C113U | 0.02

Variant | self-cleavage
A4G C121A | 2.03
A47U U133C | 0.97
C85A | 1.18
A90U A125G | 0.8
A68U U120A | 1.48
C81U U103A | 0.1
A47C U87C | 1.76
U26C C77U | 1.77
G84A U102A | 2.02
A36G U122C | 1.25
A111G G136U | 0.02
U43C A126G | 0.73
U102C C128U | 1.62
C71U U130C | 0.13
U26A A27G | 0.9
C81U A94G | 0.41
A64G U122C | 1.81
C6U G79U | 0.11
A22U U43C | 1.81
G21U U37A | 1.06
A69U A90G | 1.31
A64U G75A | 0.1
A30G A86G | 1.41
A60G U124A | 0.75

Variant | self-cleavage
U38C A89G | 1.9
G20A A27C | 1.93
U19C G75C | 0.17
A23G A135G | 1.13
A116G U124C | 0.36
A27G U49A | 0.93
A18U U38A | 1.02
G15A U139C | 1.3
U131A G137U | 0.48
U72C A89G | 0.24
G74C A110U | 0.14
U2C A66U | 0.2
U38A A52U | 1.64
A59G A63G | 1.4
A11C U124C | 1.12
A78G U87C | 0.05
A13G A98U | 1.29
A36U A47G | 1.03
U57A A91G | 0.54
C32U A67G | 1.67
A4G A33U | 0.59
A24G U49A | 1.37
G15C A94G | 0.33
U103C A118G | 0.22

Variant | self-cleavage
U2C A96C | 1.85
A78C U87C | 0.27
A13G G136A | 0.95
A18G A36U | 1.39
A27C G75C | 0.12
C16A A56G | 0.41
U3C A110U | 1.16
U102C C105U | 1.01
U132C G138U | 1.54
A5G G119U | 1.44
U38C U122C | 0.8
G58A U130C | 0.82
A4G G65C | 1.18
U3A U103C | 0.76
G7U A67G | 1.28
U100C A117G | 2.56
A59U U72A | 0.14
C34U C101A | 0.21
U120G U130A | 1.2
A55U A92U | 2.65
A86G U102G | 0.39
U39C A62U | 1.95
U3C C71A | 0.16
A62G U70A | 1.59

Variant | self-cleavage
U100A A111G | 0.02
C61U U87C | 1.35
A11G U139C | 2.37
A55U A125G | 0.35
A60G A114G | 0.31
A92G U131A | 1.33
A96G G115A | 0.07
U2C A126G | 1.22
C16U | 1.25
U87C A96U | 1.48
U3C A78U | 0.51
A36C U43C | 1.24
A55U U131C | 2
A33G A69G | 0.28
A56G A114U | 0.08
A18U A66C | 1.22
G41A U127C | 1.22
A55U A114G | 0.21
U57C A60U | 1.78
A62C U132C | 1.25
A51U A67U | 2.12
A66G G83U | 0.61
A55G A126U | 0.86
C85G A96G | 1.02

Variant | self-cleavage
G14U A96U | 1.13
A36G A116U | 1
A82U A126C | 0.05
A90U A140U | 1.2
A47U | 0.72
A13G U108G | 0
A60G A117C | 0.3
A55G C77U | 1.41
A78G A116G | 0.15
A60U G138A | 1.37
G106C U108C | 0
G73A A116U | 0.03
A55G A134G | 1.23
A52G A64G | 0.9
A52G A64U | 0.82
A62U G75A | 0.06
A66G U87C | 0.77
A52U A94G | 1.52
U12C U130C | 0.95
G20A A117G | 0.65
A67U A69G | 1.13
G44A A82U | 0.23
U97A U108A | 0.03
U97A U108C | 0.01

Variant | self-cleavage
C16A A89G | 1.37
C17U A116G | 0.47
A90G U102A | 0.09
U38C A98U | 1.89
A59C A68G | 2.1
G21U A22G | 1.71
U12G A33G | 1.04
G28A C128A | 1.34
G83U C88U | 1.11
U19C G31A | 0.83
U72A A94U | 0.37
U3C A134U | 0.67
A11U A89U | 1.59
A69U G136A | 2.69
A24C U103C | 1.38
A64G A66C | 1.17
G28U A68G | 1.22
G73A A94G | 0.19
A11G A30G | 1.08
A36G U57C | 1.27
A27U A86G | 1.43
U72A A78U | 0.15
U70A A82U | 0.24
A68U U103C | 1.42

Variant | self-cleavage
U87A U122A | 1.73
A36C A62G | 2
A24C A66U | 1.03
A27G A92U | 1.07
A117U U130C | 1.05
A22G U103A | 0.41
A22G A111U | 0.04
A52G C112U | 0.01
A66C U127C | 0.14
A62U A67C | 1.64
U38C U132A | 1.77
A114G A129G | 0.07
U38C A67G | 1.55
G106A U139A | 0
A36G A67U | 1.85
A11U A111G | 0.06
A82U U100C | 0.5
A95U A118U | 0.6
C61A | 1.82
A60U U124C | 0.94
U12A A59G | 1.26
A27U A63G | 2.61
C34U A116G | 0.54
U19G A23G | 0.83

Variant | self-cleavage
U9C A110G | 0.15
A22U A23G | 1.74
A18U U49A | 1.67
U37C A135G | 0.95
G84C A111G | 0.02
A23G U122C | 0.84
U72A U124G | 0.12
A47G A63U | 1.03
A23U A54U | 1.61
U3A A60U | 1.71
C109U A126G | 0.14
G29A A30G | 1.16
A59G C107U | 0.01
A11G A54G | 1.01
A67G U139A | 1.87
A27U A91G | 1.19
U87A A90G | 1.29
A51G G106A | 0
A36U U72C | 0.32
A13U A125U | 1.71
A5G U19C | 0.96
A98U A114U | 0.12
A86G A129U | 0.57
A54G A67U | 2.17

Variant | self-cleavage
G41A A62G | 2.53
U43A U139G | 2.1
A78G U100A | 0.04
U19A A94G | 1.89
U124C A125G | 1.32
U102A A110G | 0.1
G44A A64G | 1.36
U9C G83A | 2.33
A13G U87C | 1.5
A47U U70G | 1.16
A126U U139A | 1.99
C105U U139C | 0.08
G75A U120C | 0.02
G104A A125G | 0.01
A23G A62U | 1.09
U9A | 1.01
A67G G137U | 2.03
U103C G136U | 1.12
C88A U130C | 1.42
A63U U108C | 0.01
A11U A52G | 1.25
A51G U70C | 0.95
A36G A90G | 1.54
A67C A110G | 0.37

Variant | self-cleavage
A5G A56G | 0.66
U49G U122A | 1.35
A96U A135U | 0.78
A59G U103A | 0.62
U38A A140U | 1.08
A64G G136U | 2.02
U57G U87A | 1.47
A18C A22G | 1.85
A54G G84C | 0.61
A18U U133A | 1.57
A36G A92U | 0.99
A54G A117U | 0.91
U72C U133C | 0.13
A68G A125G | 0.48
U38C U102A | 1.44
U57C A114U | 0.05
A90U A129U | 1.29
A54G U72A | 0.19
G31A U43A | 2.08
A24G C34U | 1.69
A95G A116G | 1.88
A5U G21A | 1.25
A64U A67G | 1.32
C16U U43A | 0.54

Variant | self-cleavage
A68U C88U | 2.47
U2A A95G | 1.21
C46G | 1.46
A91G U131C | 1.07
A18G A116G | 1.17
A110G A111G | 0.02
A69G U100C | 2.43
U70A A89U | 1.74
G14A A129U | 0.41
U100G U103C | 0.09
U49C C121G | 2.4
A30U U120C | 1.29
A23G C61A | 1.45
G106A A126G | 0
C42U G44A | 1.51
U12C A13U | 0.95
U43C C112U | 0
C32U U72C | 0.2
A59U A82U | 0.15
U38C C61A | 0.99
C112G U124C | 0
C16A A126G | 1.2
A24G A134G | 0.94
U72A A114G | 0.11

Variant | self-cleavage
U100C G136A | 2.45
A86U | 1.77
A78U U120A | 0.18
G14A A47G | 0.81
G7A A36U | 1.54
A94G A98U | 2.36
A4G U19A | 0.78
A78U U103C | 0.06
A78G U130A | 0.17
G75U U133A | 0.15
C45A A98U | 1.6
A11G U38A | 0.86
A94G A117U | 0.67
A90G | 0.95
U19A A116C | 0.09
A59G A94G | 0.79
A5U A55U | 1.15
U12C A55G | 1.34
A60G U100A | 0.52
G31A A117G | 1.42
C46U U87C | 1.68
A67G A140C | 1.47
A5G A67G | 0.89
C16G A78G | 0.55

Variant | self-cleavage
A82G A134G | 0.54
C128A U139C | 1.05
A55U U120C | 0.86
A11U A23G | 0.87
A86G U131C | 1.23
G41C U43C | 2.19
A64G U87C | 0.87
C40U U97A | 1.63
A22U G53A | 1.47
A52G G75C | 0.13
U3C U38C | 0.98
A64G A110C | 0.36
U2C A33G | 0.74
A52U A54G | 1.25
A67G A69U | 1.32
A22G A60G | 0.94
A30G A89C | 0.8
C6G | 1.83
G8A A18G | 0.78
A36U A82U | 0.31
A52G G104A | 0.04
A60C A96G | 1.77

Reference: the RNAGym collection of RNA variant scans (doi:10.7554/elife.90254)
